Laboratory results taken from paper PMC3674885.
Where two headings read alike, the source gives them in different places.

How the values were obtained:
[1] = target: both classes of receptors (TrkA and p75) on PC12 cells (rat (endogenous in PC12)); experiment: radioligand binding
[2] = target: both classes of receptors (TrkA and p75) on PC12 cells (rat (endogenous in PC12)); experiment: radioligand binding; remark: listed apart in the source
[3] = target: high-affinity site on PC12 cells (cold-temperature, cold-chase stable binding) (rat (endogenous in PC12)); experiment: radioligand binding
[4] = target: TrkA receptor (rat) on MG139 cells (rat) (UniProt P35739)
[5] = target: TrkA receptor (rat) on MG139 cells (rat) (UniProt P35739); experiment: radioligand binding
[6] = target: TrkA receptor (rat) on MG139 cells (rat) (UniProt P35739); experiment: radioligand binding; remark: listed apart in the source
[7] = target: 7-84-103 NGF mutein (F7A/H84A/R103A); experiment: native gel or EMSA + other: high-performance ion-exchange chromatography; conditions: native gel or EMSA + other: high-performance ion-exchange chromatography (HPIEC)

Sequence of UniProt P35739 (P35739 33-799): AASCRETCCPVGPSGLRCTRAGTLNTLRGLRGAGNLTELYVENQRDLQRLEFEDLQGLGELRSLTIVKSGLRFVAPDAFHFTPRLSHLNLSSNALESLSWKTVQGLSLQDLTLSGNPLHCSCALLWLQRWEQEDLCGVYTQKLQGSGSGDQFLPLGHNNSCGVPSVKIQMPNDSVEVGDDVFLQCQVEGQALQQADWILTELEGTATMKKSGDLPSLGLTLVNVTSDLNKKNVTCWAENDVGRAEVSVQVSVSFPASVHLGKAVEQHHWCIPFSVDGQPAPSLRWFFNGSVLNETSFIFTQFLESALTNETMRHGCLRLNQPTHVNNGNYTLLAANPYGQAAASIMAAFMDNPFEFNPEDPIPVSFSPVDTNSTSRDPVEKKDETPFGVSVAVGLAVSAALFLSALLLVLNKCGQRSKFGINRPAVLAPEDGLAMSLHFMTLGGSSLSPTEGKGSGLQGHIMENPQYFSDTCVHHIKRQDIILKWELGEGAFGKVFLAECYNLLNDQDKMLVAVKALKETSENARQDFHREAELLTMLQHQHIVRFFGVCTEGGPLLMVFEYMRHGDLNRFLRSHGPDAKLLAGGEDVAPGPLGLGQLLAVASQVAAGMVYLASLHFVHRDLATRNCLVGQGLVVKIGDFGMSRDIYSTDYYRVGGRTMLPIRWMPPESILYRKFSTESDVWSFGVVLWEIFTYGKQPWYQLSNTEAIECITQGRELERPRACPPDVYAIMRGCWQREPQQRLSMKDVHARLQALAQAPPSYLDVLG

Row | Molecule | IC50 [1] [nM] | IC50 [2] [nM] | percent of ^125I-NGF binding left at the plateau of the competition curve [2] [%] | percent of the cold-chase stable ^125I-NGF binding competed away [3] [%] | XTT assay of survival of MG139 cells (TrkA+/p75-), 72 hr, EC50 [4] [nM] | neurite outgrowth of PC12 cells, 48 hr, EC50 [4] [nM] | trypan blue survival assay of PC12 cells (TrkA+/p75+), 72 hr, EC50 [4] [nM] | IC50 [5] [nM] | IC50 [6] [nM] | percent of the protein as heterodimer Htm1 in the 1:1 mixture (Mix1a) [7] [% in Mix1a] | percent of the protein as heterodimer Htm1 in the 1:2 mixture (Mix1) [7] [% in Mix1]
1 | Δ9/13 NGF mutein (from UniProt P01139 122-241) (ligand) | 0.51 | 0.46 | 20 | 27 | – | – | – | – | – | – | –
2 | Heteromutein 1 (heterodimer of the Δ9/13 and 7-84-103 NGF muteins) (from UniProt P01139 122-241) (complex) | 0.53 | 0.59 | – | – | 19 | 1.8 | 0.47 | 0.67 | 0.64 | – | –
3 | wild-type nerve growth factor (unlabelled) (from UniProt P01139 122-241) (ligand) | – | 0.25 | – | – | – | – | 0.28 | 0.03 | – | – | –
4 | 7-84-103 NGF mutein (F7A/H84A/R103A) (ligand) | 1.9 | 2.45 | – | – | 17 | – | 1.26 | 11.5 | 15 | – | –
5 | Δ9/13 NGF mutein (protein) SSTHPVFHMGEFSVCDSVSVWVGDKTTATDIKGKEVTVLAEVNINNSVFRQYFFETKCRASNPVESGCRGIDSKHWNSYCTTTHTFVKALTTDEKQAAWRFIRIDTACVCVLSRKATRRG | – | – | – | – | – | – | – | – | – | 40 | 37.5
